# Source: PMC5340911
# T1: Pab2 (nuclear poly(A) binding protein) (Schizosaccharomyces pombe, UniProt O14327 1-166)
# T1 sequence: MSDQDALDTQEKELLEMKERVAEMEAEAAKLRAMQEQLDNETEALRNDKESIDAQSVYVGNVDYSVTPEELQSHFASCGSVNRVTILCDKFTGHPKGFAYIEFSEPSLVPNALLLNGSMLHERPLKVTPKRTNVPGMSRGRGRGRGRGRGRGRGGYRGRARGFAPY
# T2: PABPN1 (His-PABPN1) (bovine, UniProt Q28165 1-306)
# T2 sequence: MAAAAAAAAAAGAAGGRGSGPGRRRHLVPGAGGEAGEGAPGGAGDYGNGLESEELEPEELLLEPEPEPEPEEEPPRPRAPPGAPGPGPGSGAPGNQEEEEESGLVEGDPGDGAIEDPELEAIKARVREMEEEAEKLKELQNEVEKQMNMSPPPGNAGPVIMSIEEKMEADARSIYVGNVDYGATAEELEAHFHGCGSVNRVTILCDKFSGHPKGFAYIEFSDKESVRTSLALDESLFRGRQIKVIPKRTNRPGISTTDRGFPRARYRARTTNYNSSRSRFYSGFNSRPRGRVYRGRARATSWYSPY
# Experiments:
# Assay in all cases: filter binding
# [1] = target: T1, Pab2 (nuclear poly(A) binding protein)
# [2] = target: T1, Pab2 (nuclear poly(A) binding protein); remark: listed apart in the source
# PABPN1 (His-PABPN1) = target: T2, PABPN1 (His-PABPN1)
Binder,Kd [1] [nM],binding result [2],binding result (PABPN1 (His-PABPN1))
AAAAAAAAAAAAAA (ssRNA) [A14],5.3 ± 1.1,,
A100 (ssRNA) RNA: AAAAAAAAAAAAAAAAAAAAAAAAAAAAAAAAAAAAAAAAAAAAAAAAAAAAAAAAAAAAAAAAAAAAAAAAAAAAAAAAAAAAAAAAAAAAAAAAAAAA,,binds,binds
